Laboratory results taken from IntAct's records for PubMed 31435016.

B1: Isoform 2 of ATP-binding cassette sub-family B member 8, mitochondrial (Homo sapiens), Q9NUT2-2 (parent)
chain: MLVHLFRVGIRGGPFPGRLLPPLRFQTFSAVRYSDGYRSSSLLRAVAHLRSQLWAHLPRAPLAPRWSPSAWCWVGGALLGPMVLSKHPHLCLVALCEAEEAPPASSTPHVVGSRFNWKLFWQFLHPHLLVLGVAVVLALGAALVNVQIPLLLGQLVEVVAKYTRDHVGSFMTESQNLSTHLLILYGVQGLLTFGYLVLLSHVGERMAVDMRRALFSSLLRQDITFFDANKTGQLVSRLTTDVQEFKSSFKLVISQGLRSCTQVAGCLVSLSMLSTRLTLLLMVATPALMGVGTLMGSGLRKLSRQCQEQIARAMGVADEALGNVRTVRAFAMEQREEERYGAELEACRCRAEELGRGIALFQGLSNIAFNCMVLGTLFIGGSLVAGQQLTGGDLMSFLVASQTVQRSMANLSVLFGQVVRGLSAGARVFEYMALNPCIPLSGGCCVPKEQLRGSVTFQNVCFSYPCRPGFEVLKDFTLTLPPGKIVALVGQSGGGKTTVASLLERFYDPTAGVVMLDGRDLRTLDPSWLRGQVVGFISQEPVLFGTTIMENIRFGKLEASDEEVYTAAREANAHEFITSFPEGYNTVVGERGTTLSGGQKQRLAIARALIKQPTVLILDEATSALDAESERVVQEALDRASAGRTVLVIAHRLSTVRGAHCIVVMADGRVWEAGTHEELLKKGGLYAELIRRQALDAPRTAAPPPKKPEGPRSHQHKS
partner: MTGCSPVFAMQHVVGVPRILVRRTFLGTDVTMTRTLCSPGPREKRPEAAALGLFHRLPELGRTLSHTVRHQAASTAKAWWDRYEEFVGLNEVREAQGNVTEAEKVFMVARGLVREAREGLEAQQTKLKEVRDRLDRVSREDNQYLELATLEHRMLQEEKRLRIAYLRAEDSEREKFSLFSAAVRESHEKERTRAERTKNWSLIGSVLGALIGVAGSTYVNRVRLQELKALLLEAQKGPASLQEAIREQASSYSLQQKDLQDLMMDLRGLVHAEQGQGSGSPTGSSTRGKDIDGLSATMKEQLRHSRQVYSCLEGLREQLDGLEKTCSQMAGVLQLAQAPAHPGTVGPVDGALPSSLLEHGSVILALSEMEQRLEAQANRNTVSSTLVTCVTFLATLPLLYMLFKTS

Variants of: B1
Settings: with Ccdc51, Q3URS9-1

| effect of a mutation on the interaction | Variant |
| --- | --- |
| with no effect | K496A |
